Test [1] has as its target Human SARS-CoV-2_Wuhan S (SmT1) (SARS-CoV-2 (Wuhan), UniProt P0DTC2 14-1208). Description: flow cytometry SVNA, VHH-Fc vs biotin-S binding to Vero E6 ACE2.
The target of test [2] is SARS-CoV-2 spike protein S on live virus, Wuhan (strain SARS-CoV-2/Canada/VIDO-01/2020) (SARS-CoV-2 (Wuhan), UniProt P0DTC2 14-1273). Nature of the test: cell-based or functional assay.
For test [3], the target named is Human SARS-CoV-2_Wuhan S (SmT1) (SARS-CoV-2 (Wuhan), UniProt P0DTC2 14-1208). Description: tandem SPR, immobilized S, orientation 1: VHH alone.

B1: NRCoV2-MRed04 VHH-Fc (Fc fusion)
chain: EVQLVESGGGLVQPGRSLRLSCAASGNSFSISTMGWFRQAPGKERELVASIWSDTTTSYADSVKGRFTISTDNTRTKVYLQMSSLNPEDTAVYYCAADRGFVVRGQYDYWGQGTQVTVSS
notes: bivalent VHH-Fc
Usually IC50 stands for the midpoint of a concentration-inhibition curve. Low readings indicate higher potency, high ones lower potency. As usually defined, the IC99 is the concentration needed for an effect of 99%. In the case of B1, in test [1], the IC50 is 4.6 nM, the IC99 was found to be 262 nM and the Imax % came out at 73%. Besides, the “LVNA IC50” value in test [2] turned out to be 9.61 nM.

B2: NRCoV2-SR01 VHH (VHH)
VHH: EVQLVQSGGGSVQAGGSLRLSCVASGFTFDNYAIGWFRQAPGKEREGVSCISGNGGVTIYADSVKGRFTISRDNAKNLVYLQMNSLKPEDTAVYYCAATGIRSTWSVYGCSRLAGPYDYWGQGTQVTVSS
With B2, the “End 1st inj (RU)” value in test [3] is 39.4 RU.

B3: NRCoV2-15 VHH (VHH)
VHH: EVQLVSSGGGLVEAGGSLRLSCIASGSTSGRNTMGWFRQAPGKQREWVAIVSTSGATNYAGSVKGRFTLSRDNAKNAVYLQMNNLKPEDTAVYYCYAAYGGGGDYWGQGTQVTVSS
Consider B3, for which the “End 1st inj (RU)” value in test [3] was found to be 10.1 RU.

B4: NRCoV2-05 VHH-Fc (Fc fusion)
chain: EVKLVQSGGGLVQPGGSLRLSCAASGFIFSNYAMNWVRQAPGKGLEWVSGINSGGGDTRYADSVKGRFTVSRDNAKNTLYLQMNSLKPEDTGVYYCSKGPVSSYYGSGYDYRGQGTQVTVSS
notes: bivalent VHH-Fc
In the case of B4, in test [1], the IC50 turned out to be 6.7 nM, the IC99 came out at 37 nM and the Imax % came out at 95%. Besides, the “LVNA IC50” value in test [2] came out at 0.0008 nM.

B5: NRCoV2-14 VHH-Fc (Fc fusion)
chain: EVQLVSSGGGLVQAGGSLRLSCEASGTTFSHYAVGWYRQAPGKQREWVASISVFGSTTYGGSVAGRFTISRDNDKNTVDLQMNSLKPEDTAVYYCHAVNADIGGDYWGQGTQVTVSS
notes: bivalent VHH-Fc
For B5, in test [1], the IC50 was 9.9 nM, the IC99 was 160 nM and the Imax % was 83%. Moreover, the “LVNA IC50” value in test [2] worked out at 3.1 nM.

B6: NRCoV2-14 VHH (VHH)
VHH: EVQLVSSGGGLVQAGGSLRLSCEASGTTFSHYAVGWYRQAPGKQREWVASISVFGSTTYGGSVAGRFTISRDNDKNTVDLQMNSLKPEDTAVYYCHAVNADIGGDYWGQGTQVTVSS
With B6, the “End 1st inj (RU)” value in test [3] worked out at 26.9 RU.

B7: NRCoV2-S2F3 VHH (VHH)
VHH: EVQLVQSGGGLVQAGGSLRLSCATSVRILSVPAMGWYRQAPGKEREMVAVITSGGSTNYADSVKGRFTISRDNAKNTVYLQMNSLKLEDTAVYQCNLRDILSQPFWGQGTQVTVSS
For B7, the “End 1st inj (RU)” value in test [3] came out at 50 RU.

B8: NRCoV2-SR16 VHH (VHH)
VHH: QVQLVQSAGGLVQAGGSLRLSCVVSGTTFSRYHMGWHRQAPGKQRDFVAGISTSGAVTYADSAKGRFTISRDNAKNTVYLEMNSLKLEDTALYYCNTGGWDYRSSTFIMGLNWGQGTQVTVSS
For B8, the “End 1st inj (RU)” value in test [3] was found to be 37.4 RU.

B9: NRCoV2-SR13 VHH (VHH)
VHH: EVQLVESGGGLVTTGGSLRLSCATSGSRFGSKHMAWYRQAPGKQRDLVAAISSGGSTHYGSSVKGRFTISRDNAKSTVYLQMNSLNPEDTAVFYCNMGGWDYRSNTYIPGSRSDYWGQGTQVTVSS
For the molecule B9, the “End 1st inj (RU)” value in test [3] was 36.9 RU.

B10: NRCoV2-17 VHH-Fc (Fc fusion)
chain: EVQLQQSGGGLVQTGGSLRLSCAAAGSPFSQLAMSWYRQISGKERAWVASISPTGNRSYSKIAKGRFTISRDNAKNTVTLQMTSLKPEDTAAYICQAANVNGGDYWGQGTQVTVSS
notes: bivalent VHH-Fc
As for B10, in test [1], the IC50 came out at 8.6 nM, the IC99 came to 101 nM and the Imax % was determined as 88%. Also, the “LVNA IC50” value in test [2] is 2.82 nM.

B11: NRCoV2-17 VHH (VHH)
VHH: EVQLQQSGGGLVQTGGSLRLSCAAAGSPFSQLAMSWYRQISGKERAWVASISPTGNRSYSKIAKGRFTISRDNAKNTVTLQMTSLKPEDTAAYICQAANVNGGDYWGQGTQVTVSS
In the case of B11, the “End 1st inj (RU)” value in test [3] turned out to be 16.7 RU.

B12: NRCoV2-12 VHH-Fc (Fc fusion)
chain: EVQLQQSGGGLVQAGGSLRLSCAASGRTFRNYVMGWFRQAPQAPGKDHEFVAAISWGGTEIYYADSVKGRFTISRDNAKNTVYLQMNSLKPEDTAVYYCAADRGLSYYYTRTTEYNYWGQGTQVTVSS
notes: bivalent VHH-Fc
Regarding B12, in test [1], the IC50 turned out to be 7.3 nM, the IC99 stood at 840 nM and the Imax % was determined as 90%. Moreover, the “LVNA IC50” value in test [2] stood at 2.82 nM.

B13: NRCoV2-20 VHH-Fc (Fc fusion)
chain: EVQLQQSGGGLVQPGGSLRLSCAASGRTFSNYVVGWFRQAPQAPGKDHEFVAVISGSDTETYYADSVKGRFTISRDNAKNTVYLQMNSLKPEDTAVYYCAADRGMSYYYTRATEYYYWGQGTQVTVSS
notes: bivalent VHH-Fc
In test [1], B13 showed an IC50 of 8.7 nM, an IC99 of 70.3 nM and an Imax % of 66%. The “LVNA IC50” value in test [2] is 11.2 nM.

B14: NRCoV2-20 VHH (VHH)
VHH: EVQLQQSGGGLVQPGGSLRLSCAASGRTFSNYVVGWFRQAPQAPGKDHEFVAVISGSDTETYYADSVKGRFTISRDNAKNTVYLQMNSLKPEDTAVYYCAADRGMSYYYTRATEYYYWGQGTQVTVSS
On to B14, for which, in test [3], the “End 1st inj (RU)” value worked out at 27.1 RU.

B15: NRCoV2-SR04 VHH (VHH)
VHH: QVQLVESGGGLVQAGGSLRLSCAASGRTFSSHTVGWYRQAPGKQRDLVAAISMGGNTNYADYADSVKGRFTISRDNAKNTLYLQMNSLKPEDTAVYYCNTAALVGNRLLPMATITWGQGTQVTVSS
With B15, the “End 1st inj (RU)” value in test [3] was found to be 10.9 RU.

B16: NRCoV2-18 VHH-Fc (Fc fusion)
chain: EVQLVESGGGLVQAGGSLRLSCVASGITISGYNMAWWRQTRGKQTERVAFINSGGSTTYSDSVKGRFTISRDNGKNTAYLQMNSLNAEDTADYFCSLHTSHDYWGQGTQVTVSS
notes: bivalent VHH-Fc
In test [1], B16 returned an IC50 of 12 nM, an IC99 of 680 nM and an Imax % of 90%. For the same molecule, the “LVNA IC50” value in test [2] was 6.4 nM.

B17: NRCoV2-18 VHH (VHH)
VHH: EVQLVESGGGLVQAGGSLRLSCVASGITISGYNMAWWRQTRGKQTERVAFINSGGSTTYSDSVKGRFTISRDNGKNTAYLQMNSLNAEDTADYFCSLHTSHDYWGQGTQVTVSS
Consider B17, for which, in test [3], the “End 1st inj (RU)” value was 12.6 RU.

B18: NRCoV2-SR02 VHH (VHH)
VHH: EVQLVDSGGGLVQAGGSLRLSCTASEFTLNYYSIGWFRQSPGKEREGVSCIRYSGGGIDYADSVKGRFTISRDNAKNTVYLTMNSLKPEDTAVYYCAADRLYSRACPTAGGRNYWGQGTQVTVSS
Consider B18, for which the “End 1st inj (RU)” value in test [3] was determined as 10.3 RU.

B19: NRCoV2-S2G3 VHH (VHH)
VHH: QVQLVQSGGGSVQAGGSLRLSCAASGSTFGIFLMGWRRQAPGKQRELVAHITSGGATNYADSVKGRFTISRDNAKNTVYLQMNSLEPEDTAVYYCYTTKRDDASVYWGQGTQVTVSS
For B19, in test [3], the “End 1st inj (RU)” value came out at 59 RU.

B20: NRCoV2-S2G4 VHH (VHH)
VHH: QVQLVQSGGGLVQAGGSLTLSCAPSGSTFSGYATNWYRQAPGKQRELVATISSDGDKNYADSVKGRFTISRDNAKNTVYLQMNSLKPEDTAVYYCNKHWWTGDWWGQGTQVTVSS
As to B20, the “End 1st inj (RU)” value in test [3] is 21.3 RU.

The values above are taken from US20240270826A1 (NATIONAL RESEARCH COUNCIL OF CANADA, published 2024).
